In series [1] the target is Synthetic 43-mer histone H3 (1-40) peptide tri-methylated at lysine 27, …-Tyr-Cys-(Ttds)-Lys-biotin.
The target in series [2] is Synthetic 43-mer histone H3 (1-40) peptide tri-methylated at lysine 9, …(me3)…-Tyr-Cys-(Ttds)-Lys-biotin.
Synthetic 43-mer histone H3 (1-40) peptide tri-methylated at lysine 9, …(me3)…-Tyr-Cys-(Ttds)-Lys-biotin, sequence (chain, as listed by the source): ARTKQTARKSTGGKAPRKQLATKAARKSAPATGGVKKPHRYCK

Synthetic 43-mer histone H3 (1-40) peptide tri-methylated at lysine 27, …-Tyr-Cys-(Ttds)-Lys-biotin, sequence (chain, as listed by the source): as above

B1: Recombinant full-length amino-terminally hexahistidine-tagged human GASC1 (protein)
chain: MEVAEVESPLNPSCKIMTFRPSMEEFREFNKYLAYMESKGAHRAGLAKVIPPKEWKPRQCYDDIDNLLIPAPIQQMVTGQSGLFTQYNIQKKAMTVKEFRQLANSGKYCTPRYLDYEDLERKYWKNLTFVAPIYGADINGSIYDEGVDEWNIARINTVLDVVEEECGISIEGVNTPYLYFGMWKTTFAWHTEDMDLYSINYLHFGEPKSWYAIPPEHGKRLERLAQGFFPSSSQGCDAFLRHKMTLISPSVLKKYGIPFDKITQEAGEFMITFPYGYHAGFNHGFNCAESTNFATVRWIDYGKVAKLCTCRKDMVKISMDIFVRKFQPDRYQLWKQGKDIYTIDHTKPTPASTPEVKAWLQRRRKVRKASRSFQCARSTSKRPKADEEEEVSDEVDGAEVPNPDSVTDDLKVSEKSEAAVKLRNTEASSEEESSASRMQVEQNLSDHIKLSGNSCLSTSVTEDIKTEDDKAYAYRSVPSISSEADDSIPLSTGYEKPEKSDPSELSWPKSPESCSSVAESNGVLTEGEESDVESHGNGLEPGEIPAVPSGERNSFKVPSIAEGENKTSKSWRHPLSRPPARSPMTLVKQQAPSDEELPEVLSIEEEVEETESWAKPLIHLWQTKSPNFAAEQEYNATVARMKPHCAICTLLMPYHKPDSSNEENDARWETKLDEVVTSEGKTKPLIPEMCFIYSEENIEYSPPNAFLEEDGTSLLISCAKCCVRVHASCYGIPSHEICDGWLCARCKRNAWTAECCLCNLRGGALKQTKNNRWAHVMCAVAVPEVRFTNVPERTQIDVGRIPLQRLKLKCIFCRHRVKRVSGACIQCSYGRCPASFHVTCAHAAGVLMEPDDWPYVVNITCFRHKVNPNVKSKACEKVISVGQTVITKHRNTRYYSCRVMAVTSQTFYEVMFDDGSFSRDTFPEDIVSRDCLKLGPPAEGEVVQVKWPDGKLYGAKYFGSNIAHMYQVEFEDGSQIAMKREDIYTLDEELPKRVKARFSTASDMRFEDTFYGADIIQGERKRQRVLSSRFKNEYVADPVYRTFLKSSFQKKCQKRQ
Take B1: in series [1], the “demethylation assay, immunoblotting of the methylation mark” value was “tri-methylated H3K27 and tri-methylated H4K20 appeared to be unaffected by GASC1 treatment”. Also, in series [2], the “demethylation of H3K9me3 peptide, mass spectrometry” value was “the majority of H3K9me3 peptide (approximately 80%) was converted to di- and mono-methylated H3-K9 after incubation of with GASC1”; the “formaldehyde release (demethylation-FDH-coupled assay)” value is listed as “recombinant His-tagged GASC1 released formaldehyde”; the “in vitro demethylation of synthetic peptide, western blotting” value is “Following 30 minutes incubation of pure tri-methylated H3K9 with GASC1 almost all tri-methyl H3K9 was converted to di- and mono-methyl H3K9”.

B2: Recombinant full-length histidine-tagged human JMJD2a (protein)
chain: MASESETLNPSARIMTFYPTMEEFRNFSRYIAYIESQGAHRAGLAKVVPPKEWKPRASYDDIDDLVIPAPIQQLVTGQSGLFTQYNIQKKAMTVREFRKIANSDKYCTPRYSEFEELERKYWKNLTFNPPIYGADVNGTLYEKHVDEWNIGRLRTILDLVEKESGITIEGVNTPYLYFGMWKTSFAWHTEDMDLYSINYLHFGEPKSWYSVPPEHGKRLERLAKGFFPGSAQSCEAFLRHKMTLISPLMLKKYGIPFDKVTQEAGEFMITFPYGYHAGFNHGFNCAESTNFATRRWIEYGKQAVLCSCRKDMVKISMDVFVRKFQPERYKLWKAGKDNTVIDHTLPTPEAAEFLKESELPPRAGNEEECPEEDMEGVEDGEEGDLKTSLAKHRIGTKRHRVCLEIPQEVSQSELFPKEDLSSEQYEMTECPAALAPVRPTHSSVRQVEDGLTFPDYSDSTEVKFEELKNVKLEEEDEEEEQEAAALDLSVNPASVGGRLVFSGSKKKSSSSLGSGSSRDSISSDSETSEPLSCRAQGQTGVLTVHSYAKGDGRVTVGEPCTRKKGSAARSFSERELAEVADEYMFSLEENKKSKGRRQPLSKLPRHHPLVLQECVSDDETSEQLTPEEEAEETEAWAKPLSQLWQNRPPNFEAEKEFNETMAQQAPHCAVCMIFQTYHQVEFGGFNQNCGNASDLAPQKQRTKPLIPEMCFTSTGCSTDINLSTPYLEEDGTSILVSCKKCSVRVHASCYGVPPAKASEDWMCSRCSANALEEDCCLCSLRGGALQRANDDRWVHVSCAVAILEARFVNIAERSPVDVSKIPLPRFKLKCIFCKKRRKRTAGCCVQCSHGRCPTAFHVSCAQAAGVMMQPDDWPFVVFITCFRHKIPNLERAKGALQSITAGQKVISKHKNGRFYQCEVVRLTTETFYEVNFDDGSFSDNLYPEDIVSQDCLQFGPPAEGEVVQVRWTDGQVYGAKFVASHPIQMYQVEFEDGSQLVVKRDDVYTLDEELPKRVKSRLSVASDMRFNEIFTEKEVKQEKKRQRVINSRYREDYIEPALYRAIME
As for B2, the “demethylation of synthetic H3K9 peptides, western blotting” value in series [2] was “GASC1 and its homolog JMJD2A appeared to have a comparable ability to demethylate synthetic H3K9 substrates”.

The record behind these values is patent publication US20090162945.
